Reference: patent US20220289866A1 (University of California, published 2022)
Non-standard residues stand in square brackets, D forms with d. No end group written: not given here. *: point of attachment. ARS‑1620 (S-atropisomer) = O=C(CC*)N1CCN(c2ncnc3c(F)c(-c4c(O)cccc4F)c(Cl)cc23)CC1; Nle = CCCC[C@H](N)C(=O)O

T1: PolyG-1620 peptide (S-atropisomer) (not fully specified (N-terminus); printed as GGC(1620)GGGGGG-Nle)
T1 construct: Control peptide, not of natural origin
T1 peptide: GGC(ARS‑1620 (S-atropisomer))GGGGGG[Nle]

T2: AHR2-1620 peptide
T2 construct: Origin printed as 'off target'
T2 peptide: VVVEPQQQLC(ARS‑1620 (S-atropisomer))QK

B1: P2G5 Fab (Fab, V domains shown)
VH: QVQLLESGGGVVQPGRSLRLSCAASGFTFSSYAMHWVRQAPGKGLEWLASISYDGSNKFHADSVKGRFTISRDNSKSTLYLQMNSLRAEDTAVYYCVRERVPWDYDGMDVWGQGTTVTVSS
VL: QSVVTQPPSVSAAPGQKVTVSCSGSNSNIGDNYVSWYQLLPGTAPKLLIYDNNKRPSGILDRFSGSKSGTSATLDITGLQTGDEADYYCGTWDSSLLTVVFGGGTKLTVLG
notes: Fab from a human naive Fab-phage library; also called P1C1; P1C1(P2G5)
B2: P2F11 Fab (Fab, V domains shown)
VH: DVQLVESGGGVVQPGRSLRLSCAASGFTFSNYAMHWVRQAPGKGLEWVALISYDGSNKFHADSVKGRFTISRDNSKSTLYLQMNSLRAEDTAVYYCVRERVPWDYDGMDVWGQGTTVTVSS
VL: QSVLTQPPSASGTPGQRVTISCSGGNSNIKSNTVSWYRQLPGATPKLLIYKTSQRPSGVPDRFSGSKSDTSATLDIAGLQTGDEADYYCGTWDNSLSSVVFGGGTRVTVLG
notes: Fab from a human naive Fab-phage library
B3: P1H6 Fab (Fab, V domains shown)
VH: QVQLVESGGGVVQPGRSLRLSCAASGFTFSSYAMHWVRQAPGKGLEWLASISYDGSNKFHADSVKGRFTISRDNSKSTLYLQMNSLRAEDTAVYYCVRERVPWDYDGMDVWGQGTTVTVSS
VL: QSVLTQPPSVSAAPGQKVTVSCSGSSSNIGNNYVSWYQLLPGTAPKLLIYDNNKRPSGILDRFSGSKSGTSATLDITGLQTGDEADYYCGTWDSSLINVVFGGGTKVTVLS
notes: as for B2
B4: P1A4 Fab (Fab, V domains shown)
VH: QVQLQESGGGLVQPGRSLRLSCAASGFTFSSYAMHWVRQAPGKGLEWVAVISYDGSNKYYADSVKGRFTISRDNSKNTLYLQMNSLRAEDTAVYYCARDYDWQYFDYWGQGTLVTVSS
VL: QSVVTQPPSVSAAPGQEVTISCSGSSSNIGNNYVSWYQHLPGTAPKLLIYDSDKRPSGIPDRFSGSKSGTSATLGVTGLQTGDEADYYCGTWDSSLSAVMFGGGTKLTVLG
B5: P2F10 Fab (Fab, V domains shown)
VH: EVQLVESGGGVVQPGRSLRLSCAASGFTFSNYAMHWVRQAPGKGLEWVALISYDGSITYYADSVKGRFTISRDNSKDTLYLQMNSLRPEDTTLYYCARERVPYDYYGMAVWGQGTTVTVSS
VL: QSVLTQPPSVSAAPGQKVTISCSGSASNIGSNHVSWYQHVPGTAPQLLIYDDKQRPSGIPDRFSGSKSGTSAALAITGLQTGDEADYYCATWDNSLASAFFGGGTKLTVLS
notes: as for B2

Assays:
[1] = biological target: T1, PolyG-1620 peptide (S-atropisomer); assay: BLI, biotinylated peptide
[2] = biological target: T2, AHR2-1620 peptide; assay: BLI; 'Affinity (nM)'
[3] = biological target: T1, PolyG-1620 peptide (S-atropisomer); assay: BLI; 'Affinity (nM)'

Binder | Kd [1] | Kd [2] | Kd [3]
B1 | 85.4 nM |  | 
B2 | 21.7 nM |  | 
B3 | 24.6 nM |  | 
B4 | 39 nM | 51 nM | 40 nM
B5 | 14.1 nM |  | 
